System: MS2 coat protein
Assay: apparent KD of MS2 coat protein; designed switch direction (-1 OFF switch, 1 ON switch): 1; higher = weaker reporter binding
Outline: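 For each design, the apparent KD is the median over clusters of curves fitted to normalised cluster fluorescence. Clusters held RNA switches with common flanks, transcribed on Illumina chips by stalled E. coli RNA polymerase. These were titrated with SNAP-549-labelled MS2 coat protein, doubling from 0.7 or 1.5 nM to 3 µM, without input, with 200 uM small-molecule ligand, or with an oligonucleotide input.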

[1] = input ligand: microRNA oligo, concentration not stated
[2] = Eterna round: R95, input ligand: microRNA oligo, concentration not stated
[3] = Eterna round: R95, input ligand: FMN 200 uM
[4] = Eterna round: R95, input ligand: none

| Sequence | apparent KD of MS2 coat protein [1] | apparent KD of MS2 coat protein [2] | apparent KD of MS2 coat protein (input ligand: FMN 200 uM) | apparent KD of MS2 coat protein (input ligand: none) | apparent KD of MS2 coat protein [3] | apparent KD of MS2 coat protein [4] |
| --- | --- | --- | --- | --- | --- | --- |
| AAGCUCGUGUGAGGAUAUGCCGCCGUUUCGGCUGCAGAAGGUGCUACGUUACAUGAGGAUCACCCAUGUCUCUGUUGUUUCGUC [salish99_SSNG1_r04_954] (Eterna round: R96, puzzle: Same State NG 1) | 22.1 nM | – | – | – | – | – |
| GGAGGACAUGAGGAUCACCCAUGUGGAUGGGCGCUAGGAUAUGCGAGAGGAUGGAGAGAAGCAGAAGGAGUGGGUU [JR_SS1_Sub042] (puzzle: Same State 1) | – | 79.6 nM | – | – | – | – |
| GUAGCAUACCGAGGAUAUUCAACAUGAGGAUCACCCAUGUGUUUGUUAUAGGCCAAAAGGCCUUGGGAGAAGGCGGAAUGCUAC [Xeonanis - 20 Mod16] (Eterna round: R96, puzzle: Same State NG 2) | 9.65 nM | – | 9.03 nM | 12.9 nM | – | – |
| GCGAUCUACCGGAAGGUAGAUCGGCUUGUACAUGAGGAUCACCCAUGUCUGUACAAGCUUUUUGCUCGUCUUAUGGG [salish99-hsa-208a-66] (Eterna round: R96, puzzle: Sensor for hsa-mir-208a) | 27.9 nM | – | 1150 nM | 713 nM | – | – |
| UUUAGUUGCGGGCAGGAUAUGUAUUAAAAUACAUGAGGAUCACCCAUGUGAGACCAUAAAGGUCUACAGAAGGGCCAAUCGCGAC [Laonerce - 19] (puzzle: Same State 2) | – | 89 nM | – | – | 14.9 nM | 88.1 nM |
| GUGCAAAUCAUAGGAUAUGGGCGGGAAUGCCGUCCAGAAGGAUGAACAUGAGGAUCACCCAUGUCCAGCCGCAAAUACGCGGCC [Sodirien] (Eterna round: R96, puzzle: Same State NG 1) | 95.1 nM | – | 93.8 nM | 192 nM | – | – |
| UGUCCAGCCUGUGCUGGUCUUUAGCAUGUACAUGAGGAUCACCCAUGUCGUGUACAUGCUUUUUGCUCGUCUUUAAA [Photon Torp-05] (puzzle: Sensor for hsa-mir-208a) | – | 25.9 nM | – | – | 68.9 nM | 92.2 nM |
| UAGAGAGGAAGCGAGGAUAUCGUGUUAGGUACAUGAGGAUCACCCAUGUUUUAGGUAGAGGUAGGCGAGAAGGCGCAGGAGAGGA [JR_SS2_Sub091] (puzzle: Same State 2) | – | 29.2 nM | – | – | 24.9 nM | 24.4 nM |
| GUGGUCAGACAUGAGGAUCACCCAUGUGGAAUAAAUAAGGUCAAGGAUAUGGAAUAUAGGAUAUACCAGAAGGUGAGGUUGGUG (Eterna round: R96, puzzle: Same State NG 3) | 167 nM | – | 245 nM | 225 nM | – | – |
| UGUUGUAUUACAGGAUAUCUAUGAUUUAUAUUUAGAGAAGGGUAUUCACAUGAGGAUCACCCAUGUAUAUACGAGGAAGUUGUG [JMF's solution 61] (Eterna round: R96, puzzle: Same State NG 1) | 33.6 nM | – | – | – | – | – |
| GGUCGGACAUGAGGAUCACCCAUGUGGUGACCGGAAACGGCAUAGGAUAUCUGUCCGAAAAGGUCAGAGAAGGGUGAACCGACC [Fiskers NG3ss - 69] (Eterna round: R96, puzzle: Same State NG 3) | 15.5 nM | – | 160 nM | 126 nM | – | – |
| GCGAGCGUACUUGCUACAUGAGGAUCACCCAUGUUUAUUGGACAGGAUAUGGUACCGUUUCGGUACCAGAAGGGUCCACAUGUA [JL SSNG3 3.85] (Eterna round: R96, puzzle: Same State NG 3) | 198 nM | – | 124 nM | 549 nM | – | – |
| AGGGAGGAAGCUGAGGAUAUCGUAAGGAGGACAUGAGGAUCACCCAUGUGUGUAGAAUUGGAGGACGAGAAGGCAGAGGAGUGGG [JR_SS2_Sub053] (puzzle: Same State 2) | – | 21.3 nM | – | – | 34 nM | 37 nM |
| UUGUUUCGUCAUUAACAUGAGGAUCACCCAUGUAAAGAACCAGAGGAUAUGCAUGUUUGAUUGUAGCAGAAGGCUGAUUGUUGU [JR_SSNG3_Sub033] (Eterna round: R96, puzzle: Same State NG 3) | 42.7 nM | – | – | – | – | – |
| AUAAGUUUGAUGCUCGUCUCUCCGUACAAACAUGAGGAUCACCCAUGUGGUCGGGUAGUAGCCCGGCCAGUAUGGCC [Ribiesreri] (puzzle: Sensor for hsa-mir-208a) | – | 20.3 nM | – | – | 40.3 nM | 46 nM |
| AGUCCAGCCAAAGCUGGACAAAAGCAUGUACAUGAGGAUCACCCAUGUUCAUGUACAAGCUUUUUGCAAGUCAAAAU [Mat - hsa-mir-208a - Mod of JL - 78] (puzzle: Sensor for hsa-mir-208a) | – | 17.1 nM | – | – | 542 nM | 433 nM |
| UCAAGCGAAAGGCUCGUCUUAUGCAAGAAACAUGAGGAUCACCCAUGUGAGGGACGAUUGAGUUAGAUGGAAUGGAA [JR_SHM208A_Sub031] (puzzle: Sensor for hsa-mir-208a) | – | 66.6 nM | – | – | 24.7 nM | 25 nM |

| Sequence | apparent KD of MS2 coat protein [1] | apparent KD of MS2 coat protein [2] | apparent KD of MS2 coat protein (input ligand: FMN 200 uM) | apparent KD of MS2 coat protein (input ligand: none) | apparent KD of MS2 coat protein [3] | apparent KD of MS2 coat protein [4] |
| --- | --- | --- | --- | --- | --- | --- |
| UGGCUGGUGAUAGGAUAUACAUGAGGAAUCCUCGUAGAAGGAUCACGACAUGAGGAUCACCCAUGUAGCCGUCCGUAGACGGCU [salish99_SSNG1_r04_005] (Eterna round: R96, puzzle: Same State NG 1) | 198 nM | – | 493 nM | 551 nM | – | – |
| GCACAUGAGGAUCACCCAUGUGCGCUUGGUUGUCCAAGCGCACAGGAUAUACCUCCCAAUGGGAGGUAGAAGGGUGAAAAGAAA [Orraveceat] (Eterna round: R96, puzzle: Same State NG 3) | 10.9 nM | – | 12.4 nM | 16 nM | – | – |
| UGUUGUAUUACAGGAUAUCUAUUGUUUUUAUUUAGAGAAGGGUAUUCACAUGAGGAUCACCCAUGUAUAUACGAGGAAGUUGUG [JMF's solution 12] (Eterna round: R96, puzzle: Same State NG 1) | 40.6 nM | – | – | – | – | – |
| GUUACAUGAGGAUCACCCAUGUAUGUGUGGGAGUAAGUGUCUUAGGAUAUCUAGUAUGUAAUUUAAGAGAAGGAAGAUUGUUGU [JMF's solution 56] (Eterna round: R96, puzzle: Same State NG 3) | 264 nM | – | 217 nM | 261 nM | – | – |
| CAGCGCUGUCGAGAGGAUAUGCGGUGAUGGACAUGAGGAUCACCCAUGUUAGCGACAGCAUCACGGCAGAAGGCUCUACCGCUGG [Soteed Omei mod 42] (puzzle: Same State 2) | – | 9.78 nM | – | – | 12.6 nM | 9.61 nM |
| UCUUGGUUUUUGCUCGUUUUUUGUGUUGAACAUGAGGAUCACCCAUGUAUUGUACGGUCCGGUUUAAUAAUGGUCCG [JMF 12] (puzzle: Sensor for hsa-mir-208a) | – | 14.7 nM | – | – | 25 nM | 26.3 nM |
| UUUAGUUGCGCGCAGGAUAUGUAUUAAUAUACAUGAGGAUCACCCAUGUGAGAUCGAAUAGAUCUGCAGAAGGGCGAAUCGCGAC [Laonerce - 27] (puzzle: Same State 2) | – | 361 nM | – | – | 52.7 nM | 772 nM |
| GUGUUACAUGAGGAUCACCCAUGUUGUUUUAGAUAAGGAUAUAUGGUAACGAGAGAAAUAAUAGAAGGUAUUAGGC [JR_SS1_Sub062] (puzzle: Same State 1) | – | 29.9 nM | – | – | – | – |
| AGCUAUCGAAAACGAUAGCAAAAGCAUGUACAUGAGGAUCACCCAUGUCAUGUACAAGCUUUUUGCUCGUUUUAAAA [Zipper 23 - 15] (puzzle: Sensor for hsa-mir-208a) | – | 37.8 nM | – | – | 20.1 nM | 52.5 nM |
| GUGGCCCAGGCACAGGAUAUGUUUCUCGUAACAUGAGGAUCACCCAUGUGCCUAUGAGAUUUAAUGCAGAAGGGUGCACGCCACU [Mat - Same State 2 - Mod of UCT - D79] (puzzle: Same State 2) | – | 95.8 nM | – | – | 24.1 nM | 184 nM |
| AAAGGAUGAUGUUACAUGAGGAUCACCCAUGUAGUGAUAACUAAGGAUAUGUGUUAAACCAGUUAAUAGAAGGUAGGAUCAUUA [AK SSNG3-V2-6] (Eterna round: R96, puzzle: Same State NG 3) | 35.1 nM | – | 43.8 nM | 49.4 nM | – | – |
| AUAAGUUCGAUGCUCGUCUCUCCGUACUAACAUGAGGAUCACCCAUGUGGUCGGGAAGUAGCCCGACCAGUAUGGCC [Vearebe] (puzzle: Sensor for hsa-mir-208a) | – | 53.3 nM | – | – | 65.4 nM | 82.1 nM |
| CAAGUACAUGAGGAUCACCCAUGUGGAAGAGAUGCAGGAUAUGUGGAGGAAGGGAGUGUAACAGAAGGGCAAGGAG [JR_SS!_Sub020] (puzzle: Same State 1) | – | 45.6 nM | – | – | 39.9 nM | 50.8 nM |
| UUUGGGUGGCUGGAGGAUAUUCUUGUGGUUACAUGAGGAUCACCCAUGUGUCGCGCGGUACGCGAGGAGAAGGCUGGCGGCCGUU (puzzle: Same State 2) | – | 223 nM | – | – | – | – |
| UUACAUGAGGAUCACCCAUGUCGCUGGUAAACUUCGAACCCGCAGGAUAUGUAUGCCACUUUACGACAGAAGGGCGGGUGCCUG [Eternabot solution 47] (Eterna round: R96, puzzle: Same State NG 3) | 50.3 nM | – | 37.9 nM | 64.3 nM | – | – |
| AGAUGUUAAUCAGGAUAUGGGCACAUGAGGAUCACCCAUGUAAAUUCGAUACUAUGUGGACACGUCUAGAAGGGAUGGCUAACA [SameState NG2 #83] (Eterna round: R96, puzzle: Same State NG 2) | 73.5 nM | – | 125 nM | 106 nM | – | – |
